Results from paper PMC11903955.

Biological target: T1, CDK8 (Arabidopsis thaliana, UniProt Q84TI6 1-470)
T1 sequence: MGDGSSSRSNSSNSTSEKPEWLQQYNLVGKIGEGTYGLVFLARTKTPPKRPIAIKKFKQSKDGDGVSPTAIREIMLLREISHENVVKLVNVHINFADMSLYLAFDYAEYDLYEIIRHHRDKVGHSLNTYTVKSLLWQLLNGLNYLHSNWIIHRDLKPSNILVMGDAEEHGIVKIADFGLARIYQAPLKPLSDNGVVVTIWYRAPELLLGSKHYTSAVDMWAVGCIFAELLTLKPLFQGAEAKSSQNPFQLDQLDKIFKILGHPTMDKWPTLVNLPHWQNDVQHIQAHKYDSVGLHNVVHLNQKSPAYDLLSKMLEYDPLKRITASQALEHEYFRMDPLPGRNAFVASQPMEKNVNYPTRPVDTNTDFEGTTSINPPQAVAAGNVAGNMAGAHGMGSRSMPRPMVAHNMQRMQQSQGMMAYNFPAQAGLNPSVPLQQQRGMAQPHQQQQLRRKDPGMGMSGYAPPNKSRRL
Test: EMSA

B1: AT-rich probe (dsDNA)
DNA 1: TAACACATATTTTGATAAATTTATTACTAAAACTATTTT
DNA 2: AAAATAGTTTTAGTAATAAATTTATCAAAATATGTGTTA
Q: Does B1 bind?
A: no binding
